# Measured values published in patent US20200291075A1 (TRUSTEES OF PRINCETON UNIVERSITY, published 2020).
# Read-outs that look alike come from different tables or passages of the source.
# T1: His6-YFP-SH2 (human, UniProt P00519 112-232)
# T1 construct: domain: SH2 domain; also called 6xHis-YFP-protein fusion
# T1 sequence (looked up): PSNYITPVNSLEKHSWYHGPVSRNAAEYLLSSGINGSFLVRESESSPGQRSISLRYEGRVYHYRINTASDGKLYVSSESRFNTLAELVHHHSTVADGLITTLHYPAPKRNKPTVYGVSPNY
# B1: HA4-AsLOV2 chimera, SG65 insertion (designed binder)
# chain: GSSVSSVPTKLEVVAATPTSLLISWDAPMSSSSVYYYRITYGETGGNSPVQEFTVPYSSSTATISGLERIEKNFVITDPRLPDNPIIFASDSFLQLTEYSREEILGRNCRFLQGPETDRATVRKIRDAIDNQTEVTVQLINYTKSGKKFWNLFHLQPMRDQKGDVQYFIGVQLDGTEHVRDAAEREGVMLIKKTAENIDEAAGGLSPGVDYTITVYAWGEDSAGYMFMYSPISINYRTC
# B2: HA4-AsLOV2 chimera, NS47 insertion (designed binder)
# chain: GSSVSSVPTKLEVVAATPTSLLISWDAPMSSSSVYYYRITYGETGGNGLERIEKNFVITDPRLPDNPIIFASDSFLQLTEYSREEILGRNCRFLQGPETDRATVRKIRDAIDNQTEVTVQLINYTKSGKKFWNLFHLQPMRDQKGDVQYFIGVQLDGTEHVRDAAEREGVMLIKKTAENIDEAAGSPVQEFTVPYSSSTATISGLSPGVDYTITVYAWGEDSAGYMFMYSPISINYRTC
# B3: HA4-AsLOV2 chimera, SA84 insertion (designed binder)
# chain: GSSVSSVPTKLEVVAATPTSLLISWDAPMSSSSVYYYRITYGETGGNSPVQEFTVPYSSSTATISGLSPGVDYTITVYAWGEDSGLERIEKNFVITDPRLPDNPIIFASDSFLQLTEYSREEILGRNCRFLQGPETDRATVRKIRDAIDNQTEVTVQLINYTKSGKKFWNLFHLQPMRDQKGDVQYFIGVQLDGTEHVRDAAEREGVMLIKKTAENIDEAAGAGYMFMYSPISINYRTC
# Experiments:
# iLID-CAAX [1] = assay: cytosol-to-membrane translocation in NIH3T3 cells
# iLID-CAAX [2] = assay: cytosol-to-membrane redistribution in NIH3T3 cells
# [3] = molecular target: mCherry (purified, His-tag cleaved off); assay: OCTET BLI; His-tagged nanobody on Ni-NTA biosensor, tag-free mCherry in solution
# [4] = molecular target: mCherry (purified, His-tag cleaved off); assay: BLI (Octet RED96e); His-tagged nanobody on Ni-NTA sensor, tagless mCherry in solution; no illumination
# His6-YFP-SH2 [5] = molecular target: T1, His6-YFP-SH2; assay: pull-down on Co2+ agarose beads with His6-YFP-SH2, crude chimera lysate, light or dark, SDS-PAGE
# Method: (§1) The His6-YFP-SH2 supernatant was then mixed with 4.5 mL of a 50% suspension of Co-charged agarose resin (Talo®), previously equilibrated in Binding buffer, and incubated at 4° C., rocking for 45 min. The suspension was sedimented by gravity and the supernatant discarded. The beads were then thoroughly washed with Binding buffer with approximately 50 times the resin or column volume. The beads (now with His6-YFP-SH2 bound) were then finally resuspended in Binding buffer to a total volume of 13.5 mL. The bead suspension was equally divided into 9 conical tubes of 15 mL (having each 1.5 mL of the bead suspension). Four of these tubes were used for experiments under blue light with LED panels (450 nm and intensity of 45 μmol/m²/s) while the other four were used for experiments in the dark (wrapped in aluminum foil). Experiments were performed in a dark room and red light was used occasionally for visualization purposes. The remaining tube was left as a control for His6-YFP-SH2 binding. Samples of 2.5 mL of bacterial clarified lysates containing either the monobody HA4 supernatant or each one of the chimeras were added to separate tubes of resin. The mixtures were then incubated for 45 minutes (at 4° C. and constant vertical rotation of 20 rpm) under blue light or dark conditions. […]
# His6-YFP-SH2 [6] = molecular target: T1, His6-YFP-SH2; assay: as above; remark: listed apart in the source
# Method: as §1
molecule,measurement,setting,value
BFP-SSPB-SOScat,change in cytosolic intensity between light and dark,iLID-CAAX [1],60%
same,change in cytosolic intensity between light conditions,iLID-CAAX [2],60%
"LaM8 anti-mCherry nanobody (His-tagged, purified) (VHH)",Kd,[3],322 nM
same,koff,[3],0.02 s⁻¹
same,kon,[3],75200 M⁻¹ s⁻¹
same,Kd,[4],230 nM
same,koff,[4],0.018 s⁻¹
same,kon,[4],76000 M⁻¹ s⁻¹
B1,binding result,His6-YFP-SH2 [5],no binding
B2,binding result,His6-YFP-SH2 [6],no binding
B3,binding result,His6-YFP-SH2 [6],no binding
